Test results as given in the nanobody polyreactivity screen of Harvey et al. (2022).

Assay: yeast display, Sf9 membrane polyspecificity reagent, FACS + sequencing; frameworks hold sequencing errors
How it was run: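 Galactose-induced (36–48 hours) yeast carrying a synthetic nanobody display library were exposed to 10% biotinylated, detergent-solubilized Sf9 membrane reagent at 4 °C for 1 hour. FACS followed streptavidin microbead enrichment, using low and high (top ~1%) gates for expression (anti-HA) and reagent binding (streptavidin). Colony PCR, MiSeq 2 × 250 sequencing and CDR-length filtering followed. Labels for polyreactivity reflect the gate of origin.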

Sequence	polyreactivity (PSR sort gate)
QVQLVESGGGLVQAGGSLRLSCAASGFTFVAYAMGWYRQAPGKERELVAAIRRTDTSTYYADSVKGRFTISRDNAKNTVYLQINSLKPEDTAVYYCAADYWRRTYLGFDYWGQGTQVTVSS	low polyreactivity
QVQLVESGGGLVQAGGSLRLSCAASGRIFRGNAMGWFRQAPGKERELVASISTSGVRTFYADSVKGRFTISRDNAKNTVYLQMNSLKPEDTAVYDCNKRDRYRMYGFNYWGQGTQVTVSS	high polyreactivity
QVQLVESGGGLVQAGGSLRLSCAASGSIFSWYAMGWYRQAPGKERELVAAIRWSGGRTYYADSVKGRFTISRDNAKNTVYLQMNSLKPEDTAVYYCAADFYPDEYYYWGQGTQVTVSS	high polyreactivity
QVQLVESGGCLVQAGGSLRFSCAASGIIFYGYAMGWYRQAPGKERELVAAISERGGSTYYADSVKGRFTISRDNAKNTVYLQMNSLKPEDTAVYYCAVDYYYLMYWGQGTQVTVSS	low polyreactivity
QVQLVESGGGLVQAGGSLRLSCAASGRTFVTYAMGWYRQAPGKEREFVAAISRNGGSTYYADSVKGRFTISRDNAKNTVYLQMNSLKPEDTAVYYCAKGRPWYRGDYWGQGTQVTVSS	low polyreactivity
QVQLVESGGGLVQAGGSRRLSCAASGSISGYNAMGWYRQAPGKERELVAVITTDGSTNYADSVKGRFTISRDNAKNTVYLQMNSLKPEDTAVYYCADYVVWLYGYEYWGQGTQVTVSS	low polyreactivity
QVQLVESGGGLVQAGGSLRLSCAASGSIFKGNAMGWYRQAPGTERELVASITRSVARTYYADSVKGRFTISRDNAKNTVFLLMNSLKAEDTAVYYCAADWYQWGGRYYAPRYYYWGQGTQVTVSS	high polyreactivity
QVQLVESGGGLVQAGGSLRLSCAASGPIFDGYVMGWYRQAPGKERELVAAISKSGARTYYADSVKGRFTISRDNAKNTVYLQMNSLKPEHTAVYYCARFSGVDNAYDYWGQGTQVTVSS	high polyreactivity
QVQLVESGGGLVQAGGSLRLSCAASGRTFGWSAMGWYRQAPGKERELVAAISSSGGSTYYADSVKGRFTISRDNAKNTVYLQMNSLKPEDTAVYYCAKESYRGGFDYWGQGTQVTVSS	high polyreactivity
QVQLVESGGGLVQAGGSLRLSCAASGRIFSRYTMGWYRQAPGKERELVATIRISGGNTYYADSVKGRFTISRDNAKNTVYLQMNSLKPDDTAVYYCAARYGWVQNTYTMYFWGQGTQVTVSS	high polyreactivity
QVQLVESGGGLVQAGGRLRLSCAASGYTFEGYAMGWDRQAPGKERELVAAISRSGGRRYYADSVKGRFTISRDNAKNTVYLQMNSLKPEDTAVYYWAAGGYYQRTRGYWGQGTQVTVSS	high polyreactivity
QVHLVESGGGLVQAGGSLRLSCAASGRTFYSNAMGWYRQPPGKERELVAAINSGGDTYYADSVKGRFTISRDNAKNTVYLQMNSLTPEDTAVYYCADDYYWEMDSWGQGTQVTVSS	low polyreactivity
QVQLVESGGGLVQAGGSLRLSCAASGFTIIYYAMGWYRQAPGKERELVAAITDSGGSTYYADSVKGRFTISRDNAKNTVYLQMNSLKPEDTAVYYCAARLTCSRFYYWGQGTQVTVSS	high polyreactivity
QVQLVESGGGLVQAGGSLSLSCAASGFIFGGYAMGWYRQAPGKERELVAAITWSGGNTYYADSVKGRFTISRDNAKNTVYLQMNSLKPEATAVYYCAADYWTKYVYWGQGTQVTVSS	low polyreactivity
QVQLVESGGGLVQAGGSLRLSCAASGRTFGKNAMGWYRQAPGKEREFVAAITSRGGSTYYADSVKGRFTISRDYAKNTVYLQMNSLKPEDTAVYYCNREYKRPSQRTEHYYWGQGSQVTVSS	low polyreactivity
QVQLVESGGGLVQAGGSSRLSCAASGRTFDDYAMGWYRQAPATERELVAAISSRGGSTYYADSVKGRFTISRDNAKHTVYLQMNSLKPEDTAVYYSNTLQSSHGSSQYDSWGQGTQVTVSS	low polyreactivity
QVQLVESGGGLVQAGVSLRLSCAASGRIFNYYTMGWYRQAPGKERELVAAINWSGGSTYYADSVKGRFTISRDNAKNTVYLQMNSLKPEDTAVYYCNALGYYGRAYYRGYDYWGQGTQVTVSS	high polyreactivity
QVQLVESGGGLVQAGGSLRLSCAASGRTFKKYAMGWYRQAPGKERELVAAITGSGGSTYYADSVKGRFTISRDNAKNTVYLQMNILTPEDTAVYYCAAYAYGVWHSQDGGNYWGQCTQVTVSS	low polyreactivity
QVQLVESGGGLVQAGGSLRLSCADSGIIFRYYSMGWYRQAPGKESEFVAAITGSSGSTYADSVKGRFTISRDNAKNTVYLQMNSLKPEDTAVYYCNADSYSIWVYGEYDYWGLGTQVTVSS	high polyreactivity
QVQLVESGGGLVQAGGSLRLSCAASGLILYSYAMGWYRQAPGKERELVADISSGGITNYADSVKGRFTISRDNAKNTVYLQMNSLKPEDTAFYYCNADSYGGNLYIWEYYYWGQGTQVTVSS	low polyreactivity
QVQLVESGGGLVQAGGSLRLSCAASGSTFRPNAMGWYRQAPGKERELVAAISRSGVSTYYADSVKGRFTISRDNAKNTVYLQMNSLKPEDTAVYYCARRYTGRPVLRESWGQGTQVTVSS	low polyreactivity
QVQHVESGGGLVQAGGSLRLSCAASGRTFRRNVMGWYRQAPGKERELVAAISSGANTNYADSVKGRFTISRDNAKNTVYLQMNSLKPEDTAVYYCNARWQEPLKYDYWGQGTQVTVSS	low polyreactivity

Sequence	polyreactivity (PSR sort gate)
QVQLVESGGGLVQAGGSLRLSCAASGSTFRWYAMGWYRQAPGKERELVAAIRSSGGSTYYADSVKGRFTISRDNAKNTVYLQMNSLKPEDTAVYYCNTYPARNFYSVAGGYWGQGTQVTVSS	low polyreactivity
QVQLVESGGGLVQAGGSLRLSCAASGRTFVGYAMGWYRQAPGKERELVAAITYSGVSTYYADSVKGRFTISRDNAKNTVYLQMNSLKPEDTAVYYCAADYISVYGYEYYYWGQGTQVTVSS	high polyreactivity
QVQLVESGGGLVQAGGSLRLSCAASGSTYQNAMGWYRQAPGKEREFVAAISWSGGSTYYADSVKGRFTISRDNAKNTVYLQMNSLKPEDTAVYYCAAYSYFSPRYDYWGQGTQVTVSS	high polyreactivity
QVQLVESGGGLVQAGGSLRLSCAASGITSDQNAMGWYRQAPGKERELVAAISWSGGSTYYADSVKGRFTISRDNAKNTVYLQMNSLKPEDTAVYYCAADIYTAYYEFDYWGQGTQVTVSS	low polyreactivity
QVKLVESGGGLVQAGGSLRLSCSASGSIITHNTMVWYRQAPGKERELVASIDSGASTNYADSVKWRFTISRDNAKNSVYLLMNSLKPEDTAVYYCAADDANFRYRDDYWGQGTQVTVSS	low polyreactivity
QVQLVESGGGLVQAGGSLRLSCAASGRIFGINVMGWYRQAPGKERELVARITGRGGRTYYADSVKGRFTISRDNAKNTVYLQMNSLKPEDTAVYYCNAQPSTTGTYDYWGQGTQVTVSS	high polyreactivity
QVQLVDSGVGLVQAGGSLRLTCAASGITFYYYAMGWYRQAPGKERELVARISSGGSTNYSDSVNGRFTISRDNAKNTVYLQMISLKPEDTAVYYCAAVRHRAMDYWGQGTQVTVSS	low polyreactivity
QVQLVESGGGLVQARGSLRLSCAASGGIFDTYVMGWYRQAPGKERELVAAISCSGSTTYADSVKGRFTISRDNAKYTVYLQMNSLKPEDTAVYYCNADYSTIWRYDYWGQGTQVTVSS	low polyreactivity
QVQLVESGGGLVQAGGSLRLSCAASGSIFLLYAMGWYRQAPGKERELVAAISLSTGNTYYADSVKGRFTISRDNAKNTVYLQMNSLKPEDTAVYYCAAEDYWSAYYWGQGTQVTVSS	high polyreactivity
QVQLVESGGGLVQAGGSLRLSCAASGFTFYKYAMGWYRQAPGKERELVAAISRRGTSTYYADSVKGRFTISRDNAKNTVYLQMNSLKPEDTAVYYCAAEIWSYPAYDYWGQGTQVTVSS	high polyreactivity
QVQVVESGGGLVQAGGSLRLSCAPSGRIFQLYAMGRYRQAPRKERELVAVISSGDRTYYADSVKGRFTISRDNAKNTVYLQMNSLKPEDTAVYYCAALGWQSGGSRWHGEYDYWGQGTQVTVSS	low polyreactivity
QVQLVESGGGLVQAGGSLRLSCAASGFTFTRNTMGWYRQAPGKERELVADINWDDGSTNYADSVKGRFTISRDNAKNTVYLQMNSLKPEDTAVYYCAADYYFYYLYPSSNLYNYWGQGTQVTVSS	low polyreactivity
QVQLVESGGGLVQAGGSLRLSCAASGFTFTGNAMGWYRQAPGKERELVAAISRSGGSTFYADSVKGRFTISRDNAKNTVYLQMNSLKPEDTAVYYCAARRRTLNYLYDYWGQGTQVTVSS	high polyreactivity
QVQLVESGGGLVQAGGSLRLSCAASGFIFDYSAMGWYRQAPGKERELVAAISHSGGTTYYADSVKGRFTISRDKAKNTVYLQMNSLKPEDTAVYYCNALYRKDFNSEYDYWGPGTQVTVSS	high polyreactivity
QVQLVESGGGLVQAGGSLRLSCAASGSIFGYAMGWYRQAPGKARELVAAISFSGVSTYYADSVKGRFTITRDNAKNTVYLQMNSLKPEDTAGYYCNAYSDGDEDYWGQGTQVNVSS	low polyreactivity
QVQLVESAGGLVQAGGSLRLSCAASGSIFPWNAMGWYRQAPGKERELVAAISYSGTRTYYADSVKGRFTISRDNAKNTVYLQMNSLKPVDTAVYYCNARGYTRSYVKYDYWGQGTQVTVSS	high polyreactivity
QVQLVESGGGLVQAGGSLRLSCAASGSIFNANAMGWYRQAPGKEWELVARITRGGRTNYADSVKGRFTISRDNAKNTVYLQMNSLKPEDTAVYYCAAVYYVGFPHKYDYWGQGTQVNVSS	low polyreactivity
QVQLVESGGGLVQAGGSLRLSCAASGRIFSGYAMGWYRQAPGKERELVAAITSGASTNYADSVKGRFTISRDNAKNTVYLQMNSLKPEDTAVYYCAATYHTWRGQYLWYDYWGQGTQVTVSW	low polyreactivity
QVQLVESGGGLVQAGGSLRLSCAASGFIFVWYAMGWYRQAPGKERELVAAISWSGGNTYYADSVKGRFTISRDNAKNTVYLQMNSLKPEDTAVYYCNVVYFDGNPEDYDYWGQGTQVTVSS	high polyreactivity
QVQLLESGGGLVQAGGSLRLSCAASGITFLLNAMGWYRQAPGKERELVAAISRSGGRTYYADSVKGRFTISRDNAKNTVYLQMNSLKPEDTAVYYCAVVTQFGDGYYWGQGTQVTVSS	high polyreactivity
QVQLVESGGGLVQAGGSLRLSCAASGNIFTNNAMGWYRQAPGKERELVAAISSSGGRTFYADSVKGRFTITRDNAKNTVNLQMNSLKPEDTSVYYCNKVASTRVSYLDMEYWGQGTQVTVSS	high polyreactivity
